For two substances, binding efficiency (bound fragment intensity/input fragment intensity) results are on record in publication PMC10477060.

This assay has as its target GST-tagged p65_(532–550) (human). The experiment in a line: pull-down.

Substance “His-DNA-PKcs_(541-988) (from UniProt P78527 541-988) (domain or fragment)” registered a binding efficiency (bound fragment intensity/input fragment intensity) of 17%.

Turning to “His-DNA-PKcs_(2408-2819) (from UniProt P78527 2408-2819) (domain or fragment)”, the binding efficiency (bound fragment intensity/input fragment intensity) is 99%.
